Consider 1 substance from article doi:10.1101/2022.02.14.480375.

For this test, the target named is S1PR1-SmBiT (S1P receptor-1 fused to the small fragment of split luciferase) (UniProt P21453). Kind of test: split reporter.
UniProt P21453, sequence (P21453 whole entry, the tested form may be a part): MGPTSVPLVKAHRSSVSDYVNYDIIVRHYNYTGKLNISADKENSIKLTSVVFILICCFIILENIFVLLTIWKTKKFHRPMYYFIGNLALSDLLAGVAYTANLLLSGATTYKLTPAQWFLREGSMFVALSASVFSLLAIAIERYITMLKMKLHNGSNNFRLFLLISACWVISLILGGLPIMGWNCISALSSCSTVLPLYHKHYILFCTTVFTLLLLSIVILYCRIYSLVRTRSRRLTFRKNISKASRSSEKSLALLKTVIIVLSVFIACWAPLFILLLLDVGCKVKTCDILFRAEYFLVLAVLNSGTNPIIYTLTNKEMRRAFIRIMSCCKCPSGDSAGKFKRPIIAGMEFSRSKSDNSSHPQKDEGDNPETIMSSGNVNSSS

As to “LgBiT-beta-arrestin fusion protein (from UniProt P49407 1-418) (natural protein)”, the T1/2 of β-arrestin activation with albumin-bound S1P (1 μM S1P) is 16 min.
